Results published in US20180028658A1 (NEW YORK BLOOD CENTER, published 2018).

Tests used:
[1] = molecular target: T1, HIV-1 Env expressed on the surface of ACH-2 cells reactivated with TNF-α (HIV-1); experiment: cell-based or functional assay
[2] = molecular target: T1, HIV-1 Env expressed on the surface of …; experiment: flow cytometry titration on activated ACH-2 cells, from 20 µg/ml in 1:3 dilutions, FITC second antibody
[3] = molecular target: T2, Recombinant gp41HXB2 (ecto-domain aa546 to 682) (HIV-1 HXB2, UniProt P04578 546-682); experiment: ELISA on coated gp41HXB2, OD at 405 nm
T2 construct: range 546-682; Bought from Aviva System Biology Corp; also called gp41 from HIV-1 HXB2 ecto-domain

[4] = molecular target: T3, BG505 SOSIP.664 gp140 trimer (HIV-1 BG505); experiment: SPR (BIAcore), Env protein immobilized on CM5 chip, antibody as analyte
T3 construct: domain: gp140; Provided by Dr. John P Moore; When cleaved, each protomer is a gp120 chain plus a gp41 ectodomain chain; also called BG505 SOSIP.646; cleavable version gp140 trimer

[5] = molecular target: HIV-1 gp41 (strain not stated) (HIV-1); experiment: as above
[6] = molecular target: T4, full-length gp120 monomer (HIV-1 (Yu2 by the materials, not named …, UniProt P35961 32-498)); experiment: as above
T4 construct: domain: gp120; The tie to strain Yu2 is inferred from 'full-length Yu2 gp120 protein' in the materials. gp120IIIB and gp120BaL were also bought; General statements about 'gp120' are entered under this molecule; also called HIV-1 gp120 monomer; monomeric full-length gp120

[7] = molecular target: T3, BG505 SOSIP.664 gp140 trimer; experiment: ELISA on coated BG505 SOSIP.664 gp140 trimer, OD at 405 nm, 1x PBS as blank
[8] = molecular target: T4, full-length gp120 monomer; experiment: ELISA on coated full-length gp120 monomer, OD at 405 nm, 1x PBS as blank
[9] = molecular target: T4, full-length gp120 monomer; experiment: SPR (BIAcore); lower end of the stated KD range
[10] = molecular target: T3, BG505 SOSIP.664 gp140 trimer; experiment: SPR (BIAcore)
[11] = molecular target: T3, BG505 SOSIP.664 gp140 trimer; experiment: method not given
[12] = molecular target: HIV-1 gp41 (strain not stated) (HIV-1); experiment: method not given
SF162 gp140 trimer = molecular target: T5, SF162 gp140 trimer (HIV-1 SF162, UniProt P19550 32-675); experiment: ELISA on coated SF162 gp140 trimer, OD at 405 nm, 1x PBS as blank
T5 construct: domain: gp140; Obtained from the NIH AIDS Reagent Program; also called non-cleavable version of gp140 trimer (SF162); uncleaved SF162 gp140 trimer

B1: vc-MMAE-NIH45-46 G54W (NYBC-HC-001) (antibody, V domains shown)
VH: QVRLSQSGGQMKKPGESMRLSCRASGYEFLNCPINWIRLAPGRRPEWMGWLKPRWGAVNYARKFQGRVTMTRDVYSDTAFLELRSLTSDDTAVYFCTRGKYCTARDYYNWDFEHWGRGAPVTVSS
VL: EIVLTQSPATLSLSPGETAIISCRTSQSGSLAWYQQRPGQAPRLVIYSGSTRAAGIPDRFSGSRWGADYNLSISNLESGDFGVYYCQQYEFFGQGTKVQVDI
modifications: MC-vc-PAB-MMAE linker payload on cysteines reduced with TCEP (sites and number not stated)
With B1 the “EC50 of cell killing, […]-BLUE cell viability assay on activated ACH-2 latent cells” value [1] was 0.85 mg/L.

B2: NIH45-46 G54W (antibody, V domains shown)
VH: QVRLSQSGGQMKKPGESMRLSCRASGYEFLNCPINWIRLAPGRRPEWMGWLKPRWGAVNYARKFQGRVTMTRDVYSDTAFLELRSLTSDDTAVYFCTRGKYCTARDYYNWDFEHWGRGAPVTVSS
VL: EIVLTQSPATLSLSPGETAIISCRTSQSGSLAWYQQRPGQAPRLVIYSGSTRAAGIPDRFSGSRWGADYNLSISNLESGDFGVYYCQQYEFFGQGTKVQVDI
notes: Human IgG1; Obtained from the NIH AIDS Reagent Program and also made recombinantly (VH and VK genes in human b12 Igγ and Igκ backbone vectors, 293T cells); FITC-labelled in the uptake experiments; also called NIH45-45 G54W
With B2 the EC50 [2] was 5.2 mg/L, the binding result [3] was “binds” and the Kd [4] was 0.267 nM. It also gave a koff [4] of 5.37e-06 s⁻¹, a kon [4] of 20100 M⁻¹ s⁻¹ and a Kd [5] of 6.75 nM. For the same binder, the koff [5] was 0.00461 s⁻¹, the kon [5] was 683000 M⁻¹ s⁻¹ and the Kd [6] was 0.11 nM. For the same binder, the koff [6] was 4.94e-06 s⁻¹, the “EC50 (read off the curve)” value [7] was roughly 0.01 mg/L and the “EC50 (read off the curve)” value [8] was roughly 0.5 mg/L. For the same binder, the Kd [9] was 0.11 to 0.17 nM, the Kd [10] was 0.23 to 0.29 nM and the Kd [11] was roughly 0.1 nM. The Kd [12] was roughly 1 nM and the “EC50 (read off the curve)” value (SF162 gp140 trimer) was roughly 0.2 mg/L.
